Data on 4 molecules can be found in patent US20150231240A1, “ANTI-C16ORF54 ANTIBODIES AND METHODS OF USE THEREOF” (priority 2012, published 2015).

For assay [1], the target named is T1, human C16orf54 (human, UniProt Q6UWD8 1-224).
T1 construct: also called huC16orf54; hC16orf54
T1 sequence: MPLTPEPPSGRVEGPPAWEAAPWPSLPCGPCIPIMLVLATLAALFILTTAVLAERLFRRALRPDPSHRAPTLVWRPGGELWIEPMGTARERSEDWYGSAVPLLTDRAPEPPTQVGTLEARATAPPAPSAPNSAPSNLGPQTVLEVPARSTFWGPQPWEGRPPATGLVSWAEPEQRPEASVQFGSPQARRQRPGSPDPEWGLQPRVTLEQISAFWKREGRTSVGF
Description: flow cytometry, 10 ug/ml antibody, D42M1-huC16orf54 cells. As for the experimental part:
(§1) Anti-C16orf54 antibodies which bound to human C16orf54 were tested for their reactivity with human C16orf54 and their crossreactivity with C16orf54 from cynomolgous monkeys (cyno C16orf54) using flow cytometry. Sarcoma cells transfected with and expressing human C16orf54 or cyno C16orf54 were washed with PBS with 0.1% BSA, incubated with FcX receptor blocking solution (BioLegend) for 15 minutes, incubated with 10 μg/ml of anti-C16orf54 antibody for 1 hour at 4° C., washed twice with PBS with 0.1% BSA, incubated with 20 μg/ml of R-Phycoerythrin-AffiniPure F(ab′)2 Fragment Goat Anti-Mouse IgG, Fcγ Fragment Specific (Jackson ImmunoResearch) for 30 minutes at 4° C., washed twice with PBS with 0.1% BSA, incubated with the viability dye TO-PRO-3 iodide (Life Technologies), and immediately analyzed on a MACSQuant Analyzer instrument (Miltenyi). For each cell line and anti-C16orf54 antibody, a fold change was derived by dividing the median fluorescence intensity for Phycoerythrin in the live cell population for the anti-C16orf54 antibody by the median fluorescence intensity for Phycoerythrin in the live cell population for the IgG isotype control antibody. A number of anti-C16orf54 antibodies (see, e.g., R29-8-57B, R29-8-136C, R29-7-1C, R29-67-7A, R29-67-4A, and R29-7-2A) bind human C16orf54 and also bind (e.g., are crossreactive with) cyno C16orf54.

In assay [2] the target is T1, human C16orf54. Kind of assay: flow cytometry titration, KG1 cells (endogenous human C16orf54).
Assay [3] concerns the target T2, cynomolgus monkey C16orf54 (cynomolgus monkey (Macaca fascicularis)).
T2 sequence: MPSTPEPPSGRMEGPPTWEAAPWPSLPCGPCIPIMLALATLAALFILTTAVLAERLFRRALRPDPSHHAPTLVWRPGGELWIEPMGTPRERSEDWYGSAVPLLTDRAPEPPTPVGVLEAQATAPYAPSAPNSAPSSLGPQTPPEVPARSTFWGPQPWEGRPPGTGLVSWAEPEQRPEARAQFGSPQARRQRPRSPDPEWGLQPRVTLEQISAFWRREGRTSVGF
Description: flow cytometry, 10 ug/ml antibody, F279-cyno-C16orf54 cells.

Assay [4] has as its target T3, cynomolgus monkey C16orf54 (cynomolgus monkey (Macaca fascicularis), UniProt Q6UWD8 1-224 (human entry)).
T3 construct: also called cyno C16orf54; cyno-C16orf54
T3 chain: T2 sequence
The assay is described as above. As for the experimental part: as §1

Assay [5] has as its target T3, cynomolgus monkey C16orf54. Description: flow cytometry titration, F279-cyno-C16orf54 cells. As for the experimental part:
Anti-C16orf54 antibodies which bound to human C16orf54 were tested for their binding to cells expressing human C16orf54 and cells expressing cyno C16orf54. […] Median fluorescence intensities for each primary antibody concentration were used to derive a flow EC50/Kd using the one site-specific binding with Hill slope model in Prism (GraphPad Prism® Software). Results are shown as flow EC50 in Table 35.

The target of assay [6] is T4, N-terminal 32 amino acids of huC16orf54 coupled to biotin (human, biotin at the C-terminus).
T4 construct: also called 32 amino acid N-terminal extracellular domain
T4 peptide: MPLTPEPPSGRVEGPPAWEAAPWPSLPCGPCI
Description: biolayer interferometry (OctetQK384), purified antibody on streptavidin sensors coated with the biotinylated peptide. As for the experimental part: Affinity measurements of purified anti-huC16orf54 antibodies were carried out on the OctetQK384® sytem (ForteBio). After coating streptavidin sensors with the N-terminal 32 amino acids of huC16orf54 coupled to biotin at the C-terminus, association and dissociation of purified anti-huC16orf54 antibodies was monitored. KD values were derived using ForteBio's software.

In assay [7] the target is T5, Human C16-ECD peptide (aa1-31) (human).
T5 construct: Coated on plates in the peptide ELISA; also called human extracellular domain peptide
T5 peptide: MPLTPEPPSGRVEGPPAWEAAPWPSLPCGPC
Kind of assay: column head 'Full kinetics (nM)' in the table of the C16orf54 peptide binding assays; method and antigen not described; 4 runs.

Assay [8] deals with T6, human C16orf54 ECD fragment aa9-24 (human).
T6 peptide: SGRVEGPPAWEAAPWP
Description: peptide ELISA, 2 ug/ml peptide coated, 10 ug/ml antibody; column 'Human ECD & ECD fragments bound by antibody'. The procedure: (§2) Anti-C16orf54 antibodies which bind to human C16orf54, including antibodies that are crossreactive with cyno C16orf54, were tested for their binding to various peptides derived from C16orf54 in a peptide ELISA. A 384-well high binding black microplate (Greiner) was incubated with 2 μg/ml of protein (human, cyno, or mouse extracellular domain peptides) for 16 hours, incubated for 1 hr with a blocking buffer (PBS with 5% Fetal Bovine Serum), washed four times with TBS with Tween, incubated for 1 hour with 10 μg/ml of anti-C16orf54 antibody, washed four times with TBS with Tween, incubated for 1 hour with 10 μg/ml of Peroxidase-AffiniPure Goat Anti-Mouse IgG, Fcγ Fragment Specific (Jackson ImmunoResearch), washed four times with TBS with Tween, and peroxidase was detected with a luminometer (Molecular Devices) upon addition of SuperSignal® ELISA Pico Chemiluminescent Substrate (Thermo Scientific). The luminescence signal was determined.

Assay [9] concerns the target T7, human C16orf54 ECD fragment aa1-15 (human).
T7 peptide: MPLTPEPPSGRVEGP
The assay is described as above. As for the experimental part: as §2

For assay [10], the target named is T4, N-terminal 32 amino acids of huC16orf54 …. Kind of assay: biolayer interferometry (OctetQK384), hybridoma supernatant on streptavidin sensors coated with the biotinylated peptide. The procedure: Eight anti-huC16orf54 monoclonal antibodies were further screened for binding and subsequent off-rate analysis using the OctetQK384® sytem (ForteBio). Hybridoma supernatants were screened for association to and dissocation from streptavidin sensors coated with the N-terminal 32 amino acids of huC16orf54 coupled to biotin, and the calculated offrates (kdis) are shown in Table 31. Cloned hybridomas with […] off-rates were carried forward for antibody purification.

Assay [11] concerns the target T5, Human C16-ECD peptide (aa1-31). Kind of assay: column head 'Full kinetics (nM)' in the table of the C16orf54 peptide binding assays; method and antigen not described; 2 runs; 2 runs, stdev 0.02.
Assay [12] addresses T8, Cyno C16-ECD peptide (aa1-31) (cynomolgus monkey).
T8 construct: Coated on plates in the peptide ELISA; also called cyno extracellular domain peptide; Cyno ECD
T8 peptide: T5 peptide with L3S, V12M, A17T
Description: peptide ELISA, 2 ug/ml peptide coated, 10 ug/ml antibody; column 'Cyno ECD bound by antibody'. As for the experimental part: as §2

Assay [13] concerns the target T6, human C16orf54 ECD fragment aa9-24. Description: peptide ELISA, 2 ug/ml peptide coated, 10 ug/ml antibody. The procedure:
as §2

Assay [14] deals with T7, human C16orf54 ECD fragment aa1-15. The description is as above. As for the experimental part: as §2
Assay [15] deals with T5, Human C16-ECD peptide (aa1-31). Description: column head 'Full kinetics (nM)' in the table of the C16orf54 peptide binding assays; method and antigen not described; 1 run.

Residue numbers refer to the chain shown, from its start.

B1: R29-8-58C (antibody, V domains shown)
VH: EVKLVESGGGLVKPGGSLKFSCAASGFTFSSYAVSWVRQTPEKRLEWVASITSGGRSYYPDSVKGRFTISRDNARSMLYLHMSSLRSEDTAMYYCTRGWDENDLWGQGTTLTVSS
VL: DVVMTQTPLSLFVSLGDQASISCRSSQSLLYSNGNTYLHWYLQRPGQSPQLLIYKVSNRFSGVPDRFSGSGSGTDFTLKISRVEAEDLGVYFCSQTTHVPWTFGGGTKLEIK
notes: Murine monoclonal antibody from a hybridoma
With B1, the results for the “Median fold change relative to IgG control” value in assay [1] and in assay [3] were 184 fold and 1.4 fold, respectively. The same molecule gave an EC50 in assay [2] of 0.6 nM.

B2: R29-7-2A (antibody, V domains shown)
VH: EVQLVESGGGLIQPKGSLKLSCVASGFSFNTHAMNWVRQAPGKGLEWVARIRSKSNNYARYYADSVKDRFTISRDDSQSILYLQMNNLKTEDTAMYYCVKQGDGGFAYWGQGTLVTVSA
VL: DIVMSQSPSSLAVSVGEKVTMSCKSSQSLLYSSNQKNYLAWYQQRPGQSPKLLIYWASARESGVPDRFTGSGSGTDFTLTISSVKAEDLAVYYCQQYYSYPPTFGAGTKVELK
notes: Murine monoclonal IgG2b from a hybridoma
As for B2, the results for the “Median fold change relative to IgG control” value in assay [4] and in assay [1] were 78.5 fold and 267 fold, respectively. The EC50 in [5] worked out at 2.7 nM; in assay [2], 1 nM. In addition, the equilibrium dissociation constant (Kd) in [6] was 1.3 nM; in assay [7], 1.01 nM. The koff in assay [6] was found to be 4.12e-05 s⁻¹; in [10], 0.00707 s⁻¹. In [6], this molecule yielded a kon of 31900 M⁻¹ s⁻¹. The binding result in assay [8] and in assay [9] was “binds” each time.

B3: R29-8-75B (antibody, V domains shown)
VH: DVQLVESGGGLVQPGGSRKLSCAASGFTFSRFGMHWVRQAPEKGLEWVAYISSGSSTIYYADTVKGRFTISRDNPKNTLFLQMTSLRSEDTAMYYCARVDYDVALAYWGQGTLVTVSA
VL: GVLMTQTPLSLPVSLGDQASISCRSSQSIVHRNGNTYLEWYLQKPGQSPKLLIYKVSNRFSGVPDRFSGSGSGTDFTLKISRVEAEDLGVYYCFQGSQWTFGGGTKLEIK
notes: as for B1
In the case of B3, the “Median fold change relative to IgG control” value in assay [4] is 7.8 fold; in assay [1], 148 fold. The binding result in [8], in assay [9] and in assay [12] was “binds” in each case. Moreover, binding in assay [11] was put at a Kd of 0.09 nM. Besides, the EC50 in assay [2] was 6.5 nM.

B4: R29-67-7A (antibody, V domains shown)
VH: DVQLQESGPGLVKPSQSLSLTCTVTGYSITSDYAWNWIRQFPGNKLEWMGYINYSGRTRYNPSLNSRISLTRDTSTNQFFLQLNSVTTEDTATYYCARENYDYEFYAMDYWGQGTSVTVSS
VL: DIVMSQSPSSLAVSVGEKVTMSCKSSQNLLYSSNQKNYLAWYQQKPGQSPKLLIYWASTRESGVPDRFTGSGSGTDFTLTISSVKAEDLAVYYCQQYYIYRTFGGGTKLEIK
notes: Murine monoclonal IgG2a from a hybridoma
Consider B4, for which the “Median fold change relative to IgG control” value stood at 35.6 fold in assay [4] and 140 fold in [1]. Moreover, the figures for the EC50 in [5] and in assay [2] were 3.7 nM and 7.3 nM, respectively. Also, the binding result in [13] and in assay [14] was “binds” throughout. In [15], this molecule yielded a Kd of 2.51 nM. This molecule gave a koff in assay [10] of 0.00845 s⁻¹.
